Tests used:
[1] = biological target: extracellular domain of CD123/IL-3Rα (residues 1-306), histidine tagged (human) (UniProt P26951); assay: ELISA on plate-coated His-tagged protein, A450
[2] = biological target: IL3Rα (1-100) chimeric receptor protein: IL3Rα residues 1-100 fused to GMRα residues 115-325, His-tagged (human) (UniProt P15509); assay: ELISA on plate-coated His-tagged protein, A450
Sequence of IL3Rα (1-100) chimeric receptor protein: IL3Rα residues 1-100 fused to GMRα residues 115-325, His-tagged (human) (P15509 other isoform, or with tags, fused parts or gaps mutant limits assumed, form in doubt): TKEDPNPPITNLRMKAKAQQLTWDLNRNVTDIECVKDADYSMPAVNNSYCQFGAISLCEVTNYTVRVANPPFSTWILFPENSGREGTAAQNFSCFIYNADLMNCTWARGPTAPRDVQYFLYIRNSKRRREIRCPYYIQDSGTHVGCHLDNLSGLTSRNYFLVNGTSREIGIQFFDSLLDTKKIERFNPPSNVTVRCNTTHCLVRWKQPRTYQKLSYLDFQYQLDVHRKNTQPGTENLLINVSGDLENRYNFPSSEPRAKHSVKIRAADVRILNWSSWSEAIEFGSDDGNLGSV

Sequence of extracellular domain of CD123/IL-3Rα (residues 1-306), histidine tagged (human) (P26951 19-306): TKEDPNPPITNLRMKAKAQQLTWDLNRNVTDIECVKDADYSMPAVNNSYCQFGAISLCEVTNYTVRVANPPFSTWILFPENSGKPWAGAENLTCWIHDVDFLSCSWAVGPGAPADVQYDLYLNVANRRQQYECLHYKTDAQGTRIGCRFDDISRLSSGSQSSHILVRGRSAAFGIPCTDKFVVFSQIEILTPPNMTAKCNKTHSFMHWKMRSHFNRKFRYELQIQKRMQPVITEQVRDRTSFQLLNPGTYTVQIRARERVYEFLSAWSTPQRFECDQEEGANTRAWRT

EC50 [1]: 0.027 nM | EC50 [2]: 0.0306 nM
Substance: ch7G3 (antibody)
